Here are results for three molecules from US20030166232A1 (LUDWIG INSTITUTE FOR CANCER RESEARCH, published 2003).

T1: GST-PDZ 2-3 (glutathione S-transferase fused to PTPL1 residues 1340-1579) (Homo sapiens (Human), UniProt Q12923 1359-1598)
T1 construct: not shown: glutathione S-transferase (GST) encoded by the expression vector pGEX1 lambda T (Pharmacia)
T1 sequence: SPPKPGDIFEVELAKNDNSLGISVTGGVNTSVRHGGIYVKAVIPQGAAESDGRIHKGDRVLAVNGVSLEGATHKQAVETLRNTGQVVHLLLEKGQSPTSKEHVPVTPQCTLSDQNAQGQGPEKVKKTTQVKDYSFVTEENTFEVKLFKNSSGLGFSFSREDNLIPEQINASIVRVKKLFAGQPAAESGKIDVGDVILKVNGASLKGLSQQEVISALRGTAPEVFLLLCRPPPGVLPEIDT

T2: GST-PDZ 5 (glutathione S-transferase fused to PTPL1 residues 1856-1960) (Homo sapiens (Human), UniProt Q12923 1875-1979)
T2 construct: not shown: glutathione S-transferase (GST) encoded by the expression vector pGEX1 lambda T (Pharmacia)
T2 sequence: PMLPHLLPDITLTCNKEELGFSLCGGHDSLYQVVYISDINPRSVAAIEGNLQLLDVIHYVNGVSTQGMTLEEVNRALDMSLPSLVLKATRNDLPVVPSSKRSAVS

B1: PARG (PTPL1 Associated RhoGAP), the 150 kDa component from PC-3 cell lysate (other)
chain: MIAHKQKKTKKKRAWASGQLSTDITTSEMGLKSLSSNSIFDPDYIKELVNDIRKFSHILLYLKEAIFSDCFKEVIHIRLEELLRVLKSIMNKHQNLNSVDLQNAAEMLTAKVKAVNFTEVNEENKNDLFQEVFSSIETLAFTFGNILTNFLMGDVGNDSFLRLPVSRETKSFENVSVESVDSSSEKGNFSPLELDNVLLKNTDSIELALSYAKTWSKYTKNIVSWVEKKLNLELESTRNMVKLAEATRTNIGIQEFMPLQSLFTNALLNDIESSHLLQQTIAALQANKFVQPLLGRKNEMEKQRKEIKELWKQEQNKMLEAENALKKAKLLCMQRQDEYEKAKSSMFRAEEEHLSSSGGLAKNLNKQLEKKRRLEEEALQKVEEADELYKVCVTNVEERRNDVENTKREILAQLRTLVFQCDLTLKAVTVNLFHMQHLQAASLADRLQSLCGSAKLYDPGQEYSEFVKATNSTEEEKVDGNVNKHLNSSQPSGFGPANSLEDVVRLPDSSNKIEEDRCSNSADITGPSFIRSWTFGMFSDSESTGGSSESRSLDSESISPGDFHRKLPRTPSSGTMSSADDLDEREPPSPSETGPNSLGTFKKTLMSKAALTHKFRKLRSPTKCRDCEGIVVFQGVECEECLLVCHRKCLENLVIICGHQKLPGKIHLFGAEFTLVAKKEPDGIPFILKICASEIENRALCLQGIYRVCGNKIKTEKLCLALENGMHLVDISEFSSHDICDVLKLYLRQLPEPFILFRLYKEFIDLAKEIQHVNEEQETKKNSLEDKKWPNMCIEINRILLKSKDLLRQLPASNFNSLHFLIVHLKRVVDHAEENKMNSKNLGVIFGPSLIRPRPQTAPITISSLAEYSNQARLVEFLITYSQKIFDGSLQPQDVMCSIGVVDQGCFPKPLLSPEERDIERSMKSLFFSSKEDIHTSESESKIFERATSFEESERKQNALGKCDACLSDKAQLLLDQEAESASQKIEDGKAPKPLSLKSDRSTNNVERHTPRTKIRPVSLPVDRLLLASPPNERNGRNMGNVNLDKFCKNPAFEGVNRKDAATTVCSKFNGFDQQTLQKIQDKQYEQNSLTAKTTMIMPSALQEKGVTTSLQISGDHSINATQPSKPYAEPVRSVREASERRSSDSYPLAPVRAPRTLQPQHWTTFYKPHAPIISIRGNEEKPASPSAACPPGTDHDPHGLVVKSMPDPDKASACPGQATGQPKEDSEELGLPDVNPMCQRPRLKRMQQFEDLEDEIPQFV
notes: In the pull-down it was the endogenous, 35S-labelled 150 kDa protein in PC-3 cell lysate; also called 150 kDa protein
B2: GST-PDZ 1 (glutathione S-transferase fused to PTPL1 residues 1066-1166) (other)
chain: SSPEREITLVNLKKDAKYGLGFQIIGGEKMGRLDLGIFISSVAPGGPADFHGCLKPGDRLISVNSVSLEGVSHHAAIEILQNAPEDVTLVISQPKEKISKV
notes: not shown: glutathione S-transferase (GST) encoded by the expression vector pGEX1 lambda T (Pharmacia)
B3: GST-PDZ 3 (glutathione S-transferase fused to PTPL1 residues 1469-1579) (other)
chain: VKDYSFVTEENTFEVKLFKNSSGLGFSFSREDNLIPEQINASIVRVKKLFAGQPAAESGKIDVGDVILKVNGASLKGLSQQEVISALRGTAPEVFLLLCRPPPGVLPEIDT
notes: as for B2

Assay in all cases: GST pull-down from 35S-labelled PC-3 cell lysate, SDS-gel, fluorography
Assay [1] deals with T1, GST-PDZ 2-3 (glutathione S-transferase …). As to the method:
(§1) PC-3 cells were obtained from American Type Culture Collection (Rockville, Md.) and cultured as described (Saras et al., 1994). Metabolic labeling of PC-3 cells was performed for 4 h in methionine-and cysteine-free MCDB 104 medium (Gibco/Life Technologies, Gaithersburg, Md.) with […] of ³⁵S-methionine and ³⁵S-cysteine (in vivo labeling mix; Amersham, Arlington Heights, Ill.). After labeling, the cells were solubilized in buffer containing 20 mM Tris-HCI, pH 7.4,150 mM NaCl, 10 mM EDTA, 0.5% Triton X-100, 0.5% deoxycholate, 1 mM dithiothreitol, 1.5% Trasylol (Bayer, Germany) and 1 mM phenylmethylsulfonyl fluoride (Sigma, St. Louis, Mo.). After 15 min on ice, cell debris was removed by centrifugation. Samples (1 ml) were then incubated for 1.5 h at 4° C. with 10 μg of GST-PDZ fusion proteins bound to glutathione-Sepharose 4B beads (Pharmacia). The beads were pelleted and washed four times with solubilization buffer. The protein complexes were eluted by boiling for 5 min in SDS-sample buffer (100 mM Tris-HCI, pH 8.8, 0.01% bromophenol blue, 36% glycerol, 4% SDS, 10 mM dithiothreitol) and analyzed by SDS-gel electrophoresis using 5-12% polyacrylamide gels (Blobel and Dobberstein, J. Cell Biol. 67:835-851, 1975). The gel was fixed, incubated with Amplify (Amersham) for 20 min, dried and subjected to fluorography.

Assay [2] deals with T2, GST-PDZ 5 (glutathione S-transferase …). As to the method: as §1
The target in assay [3] is B1. As to the method:
as §1

Regarding B1, the binding result in assay [1] and in assay [2] was “no binding (tested: 10 µg of GST-PDZ fusion protein)” throughout.
With B2, the binding result in assay [3] is listed as “no binding (tested: 10 µg of GST-PDZ fusion protein)”.
For B3, the binding result in assay [3] is given as “no binding (tested: 10 µg of GST-PDZ fusion protein)”.
